No end group written: not given here. *: point of attachment. FITC = O=C1OC2(c3ccc(O)cc3Oc3cc(O)ccc32)c2ccc(NC(=S)*)cc21
B1: biotinylated Strep II Avi-tagged SIAH1^SBD (domain or fragment)
chain: VANSVLFPCKYASSGCEITLPHTEKADHEELCEFRPYSCPCPGASCKWQGSLDAVMPHLMHQHKSITTLQGEDIVFLATDINLPGAVDWVMMQSCFGFHFMLVLEKQEKYDGHQQFFAIVQLIGTRKQAENFAYRLELNGHRRRLTWEATPRSIHEGIATAIMNSDCLVFDTSIAQLFAENGNLGINVTISMC
modifications: biotin
B2: N-terminal FITC-labeled BCoR peptide (peptide)
peptide: {FITC}-RSEIISTAPSSWVVPGP

Experiments:
[1] = biological target: BodipyFL-labeled BCL6^5−360 (human, UniProt A5PL18 5-360, BodipyFL label (site not stated)); test: FRET or BRET
biotinylated BCL6^5−129 = biotinylated BCL6^5−129 (human, UniProt A5PL18 5-129, biotin); test: FRET or BRET

Binder	Kd [1]	binding result (biotinylated BCL6^5−129)
B1	200 nM	–
B2	–	binds

Reference: PMC7816212 (Nature, 2020)
